B1: OR4K15 (parent)
chain: GUUAACGGUCAUAGGCCAUGGAAACUAGGAGCACCAUUUCGCUGCCAGUGAAGAAAUGAACAAAGAAAAUCUGGGCCAGGCAGGCAUCAAAAGAAAUAGUCUUGCGCUCAACCAGAAAGUCUGUAAUCAUUUUAAGGGUA

Variants of: B1
Assay: self-cleavage, relative activity (ratio to wild type); higher = more cleavage; in vitro, sequencing; the parent is a self-cleaving ribozyme
U2C A18U gave a self-cleavage of 0.37.
G1U A94G showed a self-cleavage of 0.76.
Work on G1A yielded a self-cleavage of 1.55.
In the case of C107U C121U, the self-cleavage is reported as 0.01.
In the case of U9C A116G, the self-cleavage is reported as 0.49.
In the case of A55U A56C, the self-cleavage is reported as 2.18.
A56C A69G gave a self-cleavage of 1.24.
Work on A27U U87A yielded a self-cleavage of 1.48.
Variant C25U U132C has a self-cleavage of 1.36.
U124C U130G showed a self-cleavage of 0.87.
With A54G U122A the self-cleavage was 1.72.
U26C A86U gave a self-cleavage of 1.52.
For A62G U122G, the self-cleavage was 2.99.
U49C U122A showed a self-cleavage of 1.33.
A22G U127G gave a self-cleavage of 1.34.
Work on U97C U131C yielded a self-cleavage of 0.72.
A22G A110U gave a self-cleavage of 0.8.
Variant A86G A96G has a self-cleavage of 0.71.
Variant U49C G75A has a self-cleavage of 0.04.
In the case of U49A A116G, the self-cleavage is reported as 0.3.
Variant A11U U19A has a self-cleavage of 1.38.
In the case of A33U U70C, the self-cleavage is reported as 1.
In the case of A78U A134G, the self-cleavage is reported as 0.31.
U9C A78U showed a self-cleavage of 0.56.
U87C U133G showed a self-cleavage of 1.67.
G79C showed a self-cleavage of 0.08.
C45U A129G showed a self-cleavage of 1.16.
Work on A125U U131C yielded a self-cleavage of 2.47.
For A33G A126G, the self-cleavage was 0.7.
In the case of A110G U132A, the self-cleavage is reported as 0.19.
With U12G U102C the self-cleavage was 1.11.
Work on A67G U70G yielded a self-cleavage of 0.68.
In the case of U43A A47U, the self-cleavage is reported as 1.13.
In the case of G41C A66U, the self-cleavage is reported as 1.25.
In the case of A59U U103C, the self-cleavage is reported as 0.31.
A55G A94C showed a self-cleavage of 1.34.
U72A U131C gave a self-cleavage of 0.14.
A18U C105U showed a self-cleavage of 0.28.
In the case of G29U A91G, the self-cleavage is reported as 1.67.
G50U A116G showed a self-cleavage of 0.75.
In the case of A117G U120C, the self-cleavage is reported as 0.23.
U19C A51G showed a self-cleavage of 0.51.
A23G A116G showed a self-cleavage of 0.47.
With U49A A135G the self-cleavage was 1.08.
G7U A18U gave a self-cleavage of 0.43.
With A96G G106A the self-cleavage was 0.01.
A52G A64C gave a self-cleavage of 2.64.
C46A A60U showed a self-cleavage of 1.27.
In the case of U2C A116G, the self-cleavage is reported as 0.6.
Work on A11U A140U yielded a self-cleavage of 1.3.
For U122C U132A, the self-cleavage was 0.43.
Variant A68G A114C has a self-cleavage of 0.04.
With U43C A51G the self-cleavage was 1.14.
Variant A33U U87A has a self-cleavage of 2.04.
Variant U87C A117G has a self-cleavage of 0.7.
Variant U9C A51G has a self-cleavage of 1.27.
In the case of A27G U127A, the self-cleavage is reported as 1.58.
A67U U127C showed a self-cleavage of 1.01.
With G79A U132C the self-cleavage was 0.1.
With G29A A125G the self-cleavage was 0.24.
A55G U103A showed a self-cleavage of 0.46.
Work on A4G G41A yielded a self-cleavage of 1.43.
Variant G75C U103G has a self-cleavage of 0.02.
G75C U103C showed a self-cleavage of 0.12.
Work on U43A U100C yielded a self-cleavage of 2.43.
U37G A91G showed a self-cleavage of 1.82.
In the case of A67U U72A, the self-cleavage is reported as 0.2.
C34U U139A gave a self-cleavage of 1.61.
U38A U43A gave a self-cleavage of 1.61.
Variant U19C A90U has a self-cleavage of 1.49.
With A5U U49A the self-cleavage was 1.79.
In the case of A13G U39G, the self-cleavage is reported as 1.52.
In the case of A27U G83A, the self-cleavage is reported as 1.31.
A33U C76G gave a self-cleavage of 0.17.
With A68G C101A the self-cleavage was 0.19.
U70A A117G showed a self-cleavage of 0.03.
With A86G U87C the self-cleavage was 0.87.
For U87A A89C, the self-cleavage was 0.99.
C46U U139A gave a self-cleavage of 1.41.
For A62C A66G, the self-cleavage was 1.51.
U39C A60U gave a self-cleavage of 1.88.
With C40U U122A the self-cleavage was 1.3.
With A90G A117U the self-cleavage was 1.07.
Work on C121A U132A yielded a self-cleavage of 1.42.
In the case of U124A U139C, the self-cleavage is reported as 1.26.
Variant C45G A51G has a self-cleavage of 1.57.
U39C U72C showed a self-cleavage of 0.27.
In the case of A51G A64U, the self-cleavage is reported as 1.75.
C77U U102A gave a self-cleavage of 1.57.
Work on G8A A95G yielded a self-cleavage of 1.52.
In the case of G44A U122C, the self-cleavage is reported as 1.67.
With A51G U130G the self-cleavage was 0.67.
U38A U87C showed a self-cleavage of 1.56.
A5G A89G gave a self-cleavage of 1.23.
A51U A67G showed a self-cleavage of 1.23.
Variant A82U A117C has a self-cleavage of 0.04.
With A52G U132C the self-cleavage was 1.84.
In the case of A22G U70C, the self-cleavage is reported as 0.91.
A13U A18U gave a self-cleavage of 0.56.
Variant G8A U70C has a self-cleavage of 1.22.
For G7U A90G, the self-cleavage was 2.21.
Work on A60U U133C yielded a self-cleavage of 2.17.
Work on A114U A125G yielded a self-cleavage of 0.
A92U C112U showed a self-cleavage of 0.01.
Work on A18U G58A yielded a self-cleavage of 1.09.
For U49C G138A, the self-cleavage was 1.86.
Variant A23G A27U has a self-cleavage of 1.29.
A52U A134U showed a self-cleavage of 1.41.
Work on C45U U49G yielded a self-cleavage of 1.93.
In the case of C46U G138A, the self-cleavage is reported as 1.91.
A5U U102C gave a self-cleavage of 1.69.
Variant U37C C76U has a self-cleavage of 0.06.
U9A A140U showed a self-cleavage of 1.31.
In the case of U72C U132C, the self-cleavage is reported as 0.3.
Variant A33U A129U has a self-cleavage of 1.42.
Work on C35U U131C yielded a self-cleavage of 0.58.
G48A U133C gave a self-cleavage of 2.78.
Variant U37C U108C has a self-cleavage of 0.01.
U102A A118G showed a self-cleavage of 0.84.
In the case of A27U A52G, the self-cleavage is reported as 1.91.
Work on A18U U39A yielded a self-cleavage of 1.05.
With U102C U124A the self-cleavage was 0.97.
With C76U U87C the self-cleavage was 0.17.
Work on U37G A59G yielded a self-cleavage of 0.71.
For U43A U87C, the self-cleavage was 1.55.
With A47G A66G the self-cleavage was 0.23.
For A51G A111G, the self-cleavage was 0.03.
In the case of A47U A114U, the self-cleavage is reported as 0.06.
Variant A91G U127C has a self-cleavage of 0.78.
A89U A95G gave a self-cleavage of 2.26.
Variant A64U A126U has a self-cleavage of 1.2.
Variant A27U U49C has a self-cleavage of 2.12.
Variant A118U A126G has a self-cleavage of 0.17.
U108C A126C gave a self-cleavage of 0.01.
In the case of C34U G123A, the self-cleavage is reported as 1.87.
For G14A A51G, the self-cleavage was 1.18.
C71G U87A showed a self-cleavage of 0.21.
For G74U G83A, the self-cleavage was 0.16.
A27U U39C gave a self-cleavage of 0.93.
Work on C46U A69U yielded a self-cleavage of 1.84.
With U37C G41U the self-cleavage was 1.04.
A82G A126C showed a self-cleavage of 0.41.
For U57A U108C, the self-cleavage was 0.02.
In the case of U108C A135G, the self-cleavage is reported as 0.01.
For G1A U102G, the self-cleavage was 1.23.
Variant A64G C109U has a self-cleavage of 0.36.
Work on A54G G75U yielded a self-cleavage of 0.12.
In the case of A33U U49G, the self-cleavage is reported as 2.25.
In the case of A54G U120C, the self-cleavage is reported as 0.3.
In the case of A55U A96C, the self-cleavage is reported as 0.74.
With G123A A135G the self-cleavage was 2.16.
Variant A47G A110U has a self-cleavage of 1.15.
For U12A A110C, the self-cleavage was 0.34.
C17A U108C gave a self-cleavage of 0.02.
U19A A98G showed a self-cleavage of 0.5.
U26A C34U showed a self-cleavage of 1.99.
For A23G A129G, the self-cleavage was 0.35.
Variant A18C A54G has a self-cleavage of 0.89.
For G84C A89G, the self-cleavage was 0.34.
Work on A36U A47U yielded a self-cleavage of 0.69.
Variant U70C U124A has a self-cleavage of 0.17.
In the case of U70G U122A, the self-cleavage is reported as 1.34.
With U2C U103A the self-cleavage was 0.62.
Variant A82G has a self-cleavage of 0.4.
A22G A51G showed a self-cleavage of 1.22.
Work on U3C A68G yielded a self-cleavage of 0.86.
With A60C U122A the self-cleavage was 1.74.
